Assay results from patent US20240317826A1, “COMPOSITIONS AND METHODS FOR TREATING AND/OR I[…] AGENT FOR TREATING HIV-1 INFECTIONS” (priority 2021, published 2024).

What was measured:
[1] = biological target: GST-SAP18 (UniProt O00422); assay: GST pull-down, bound protein quantitated from Western blot (FIG. 15c)
[2] = biological target: GST-INI1 (UniProt Q12824); assay: as above
[3] = biological target: GST-CTD (C-terminal domain of HIV-1 integrase, aa 201-288, GST fusion) (HIV-1 (Hx3B)) (UniProt P04585); assay: Alpha; GST-CTD 0.083 uM
[4] = biological target: GST-CTD (C-terminal domain of HIV-1 integrase, aa 201-288, GST fusion) (HIV-1 (Hx3B)) (UniProt P04585); assay: Alpha; GST-CTD 0.027 uM

Sequence of GST-SAP18 (O00422 whole entry): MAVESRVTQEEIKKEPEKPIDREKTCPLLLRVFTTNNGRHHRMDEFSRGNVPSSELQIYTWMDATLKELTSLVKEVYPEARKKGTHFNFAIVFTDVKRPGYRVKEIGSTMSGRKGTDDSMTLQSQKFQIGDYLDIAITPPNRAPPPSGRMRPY

| Substance | % binding [1] | % binding [2] | Kd [3] | Kd [4] |
| --- | --- | --- | --- | --- |
| His6-IN(W235E) (enzyme) | 20% | < 5% |  |  |
| His6-SUMO-INI1183-304 (from UniProt Q12824 183-304) |  |  | 3 nM | 3.5 nM |
